Experimental data as given in patent US20240352113A1 (JIANGSU HENGRUI PHARMACEUTICALS, published 2024).

How the values were obtained:
Test in all cases: cell-based or functional assay
[1] = target: T1, mouse ANGPTL3(17-455)-His (mouse, UniProt Q9R182 17-455, biotin-labeled in the ELISA and HTRF assays (sites not given))
T1 sequence: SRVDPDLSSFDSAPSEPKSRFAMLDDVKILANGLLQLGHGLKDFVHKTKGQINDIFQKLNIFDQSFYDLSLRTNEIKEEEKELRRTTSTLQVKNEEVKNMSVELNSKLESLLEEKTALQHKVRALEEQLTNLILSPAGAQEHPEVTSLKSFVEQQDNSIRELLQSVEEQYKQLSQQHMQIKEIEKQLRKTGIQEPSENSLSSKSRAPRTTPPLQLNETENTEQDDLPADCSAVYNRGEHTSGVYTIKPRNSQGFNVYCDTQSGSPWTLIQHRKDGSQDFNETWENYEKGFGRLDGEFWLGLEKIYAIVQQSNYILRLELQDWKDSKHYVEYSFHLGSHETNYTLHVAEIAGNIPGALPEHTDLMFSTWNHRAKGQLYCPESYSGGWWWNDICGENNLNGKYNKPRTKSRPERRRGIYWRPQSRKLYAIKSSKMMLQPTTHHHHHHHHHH

[2] = target: T2, cynomolgus monkey ANGPTL3(17-460)-His (cynomolgus monkey, UniProt Q9Y5C1 17-460 (human entry), biotin-labeled in the ELISA and HTRF assays (sites not given))
T2 chain: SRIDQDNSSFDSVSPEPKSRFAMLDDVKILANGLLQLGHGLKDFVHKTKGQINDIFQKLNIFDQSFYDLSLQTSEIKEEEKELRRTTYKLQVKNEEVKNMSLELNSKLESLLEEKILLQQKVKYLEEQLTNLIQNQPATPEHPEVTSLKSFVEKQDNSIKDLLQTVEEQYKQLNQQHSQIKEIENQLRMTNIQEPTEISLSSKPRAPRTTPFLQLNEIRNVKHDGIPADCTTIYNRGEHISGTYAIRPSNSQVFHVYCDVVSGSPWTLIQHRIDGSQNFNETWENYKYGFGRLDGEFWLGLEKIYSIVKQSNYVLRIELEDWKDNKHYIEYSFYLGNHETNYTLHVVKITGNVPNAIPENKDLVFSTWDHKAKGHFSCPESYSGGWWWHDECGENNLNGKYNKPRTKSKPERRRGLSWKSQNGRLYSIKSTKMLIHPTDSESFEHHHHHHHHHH

[3] = target: T3, human ANGPTL3(17-170)-Flag-His (human, UniProt Q9Y5C1 17-170)
T3 sequence: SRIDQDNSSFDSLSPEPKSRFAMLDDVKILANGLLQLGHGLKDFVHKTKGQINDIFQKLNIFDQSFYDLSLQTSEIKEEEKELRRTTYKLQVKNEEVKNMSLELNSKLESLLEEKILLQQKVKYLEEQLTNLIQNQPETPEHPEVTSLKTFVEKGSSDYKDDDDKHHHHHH

[4] = target: T4, rat ANGPTL3(17-455)-His (rat, biotin-labeled in the ELISA and HTRF assays (sites not given))
T4 chain: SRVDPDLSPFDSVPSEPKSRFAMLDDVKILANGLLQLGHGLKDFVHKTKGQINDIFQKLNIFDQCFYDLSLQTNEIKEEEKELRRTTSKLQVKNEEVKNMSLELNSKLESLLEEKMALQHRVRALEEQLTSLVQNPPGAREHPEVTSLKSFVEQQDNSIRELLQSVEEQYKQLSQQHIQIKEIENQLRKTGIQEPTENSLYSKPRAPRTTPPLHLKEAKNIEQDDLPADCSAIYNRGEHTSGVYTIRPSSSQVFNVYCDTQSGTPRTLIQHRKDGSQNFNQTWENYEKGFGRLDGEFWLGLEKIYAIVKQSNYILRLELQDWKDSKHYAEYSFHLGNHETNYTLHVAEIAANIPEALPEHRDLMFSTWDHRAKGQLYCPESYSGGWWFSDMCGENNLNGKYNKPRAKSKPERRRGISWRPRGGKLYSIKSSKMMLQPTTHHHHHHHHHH

B1: P8BG (antibody, human IgG4 S228P, kappa, V domains shown)
VH: QVQLVQSGAEVKKPGASVKVSCKASGYTFTSYDINWVRQAPGQGLEWVGLINPREDSTSYAQKFQGRVTMTRDTSTSTMYMELSSLRSEDTAVYFCARDLGSIREVLYYGMDVWGQGTTVTVSS
VL: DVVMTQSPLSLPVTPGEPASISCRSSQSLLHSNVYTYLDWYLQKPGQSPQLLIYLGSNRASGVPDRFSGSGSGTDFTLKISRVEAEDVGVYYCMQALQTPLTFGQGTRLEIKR
IC50 (nM), activity in blocking the inhibition of LPL by ANGPTL3 (bovine LPL enzyme activity assay) [1]: 41.5 nM
IC50 (nM), activity in blocking the inhibition of LPL by ANGPTL3 (bovine LPL enzyme activity assay) [2]: 53.6 nM
IC50 (nM), activity in blocking the inhibition of LPL by ANGPTL3 (bovine LPL enzyme activity assay) [3]: 75.3 nM
IC50 (nM), activity in blocking the inhibition of LPL by ANGPTL3 (bovine LPL enzyme activity assay) [4]: 132 nM
